pKd: −log10 of the molar value.
Biological target: non-translating 70S ribosome (E. coli) (UniProt P0AG44)
Test: FRET or BRET

| Substance | pKd |
| --- | --- |
| peptide deformylase PDF(E133A), TMR-labelled (enzyme) | 5.14 |
| methionine aminopeptidase MAP(H79A), TMR-labelled (from UniProt P0AE18 1-264) (enzyme) | 5.27 |

Reference: article PMC9126151
